# Experimental data reported in paper PMC5576896 (Cell reports, 2016).
# Substitutions are numbered along the chain they refer to.
# T1: purified RECQL4-3XFLAG (human, UniProt O94761 1-1208)
# T1 sequence (looked up): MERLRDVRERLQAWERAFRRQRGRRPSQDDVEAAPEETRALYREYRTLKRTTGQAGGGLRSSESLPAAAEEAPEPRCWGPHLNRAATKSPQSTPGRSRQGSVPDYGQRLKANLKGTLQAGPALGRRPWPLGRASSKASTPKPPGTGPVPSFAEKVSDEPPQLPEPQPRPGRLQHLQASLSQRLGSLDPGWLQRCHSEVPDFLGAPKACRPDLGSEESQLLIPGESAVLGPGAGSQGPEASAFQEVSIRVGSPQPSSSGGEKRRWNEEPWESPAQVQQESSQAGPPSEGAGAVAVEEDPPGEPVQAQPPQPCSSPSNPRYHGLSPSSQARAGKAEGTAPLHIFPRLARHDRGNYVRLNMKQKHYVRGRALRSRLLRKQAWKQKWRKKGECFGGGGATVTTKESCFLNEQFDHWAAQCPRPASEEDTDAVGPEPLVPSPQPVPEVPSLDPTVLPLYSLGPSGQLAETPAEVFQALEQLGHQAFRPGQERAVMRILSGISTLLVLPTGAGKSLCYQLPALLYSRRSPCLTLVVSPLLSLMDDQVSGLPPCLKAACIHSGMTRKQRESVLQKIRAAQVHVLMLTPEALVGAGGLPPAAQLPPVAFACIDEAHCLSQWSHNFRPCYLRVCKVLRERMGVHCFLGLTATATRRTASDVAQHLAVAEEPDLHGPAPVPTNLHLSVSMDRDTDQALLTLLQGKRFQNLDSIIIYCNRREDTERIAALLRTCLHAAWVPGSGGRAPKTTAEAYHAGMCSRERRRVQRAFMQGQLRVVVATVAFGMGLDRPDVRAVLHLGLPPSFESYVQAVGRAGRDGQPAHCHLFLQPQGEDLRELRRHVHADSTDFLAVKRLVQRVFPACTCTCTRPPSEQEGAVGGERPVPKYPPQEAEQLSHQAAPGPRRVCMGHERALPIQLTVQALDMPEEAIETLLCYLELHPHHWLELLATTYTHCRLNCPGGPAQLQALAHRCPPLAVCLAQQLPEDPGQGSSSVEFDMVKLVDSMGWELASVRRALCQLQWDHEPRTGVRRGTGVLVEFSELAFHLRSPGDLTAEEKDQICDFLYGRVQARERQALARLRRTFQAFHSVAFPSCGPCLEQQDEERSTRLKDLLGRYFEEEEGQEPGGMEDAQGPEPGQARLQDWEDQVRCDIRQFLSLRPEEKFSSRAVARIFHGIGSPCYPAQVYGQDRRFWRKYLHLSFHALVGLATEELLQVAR
# T2: RECQL4-KM-3XFLAG (human, UniProt O94761 1-1208, lysine 508 replaced with methionine (RECQL4-KM))
# T2 sequence (looked up): T1 sequence (looked up) with K508M
# B1: recombinant RECQL4 (natural protein, human, UniProt O94761 1-1208, looked up)
# chain: T1 sequence (looked up)
# B2: purified YFP-MRE11 (natural protein, human, UniProt P49959 1-708, looked up)
# chain: MSTADALDDENTFKILVATDIHLGFMEKDAVRGNDTFVTLDEILRLAQENEVDFILLGGDLFHENKPSRKTLHTCLELLRKYCMGDRPVQFEILSDQSVNFGFSKFPWVNYQDGNLNISIPVFSIHGNHDDPTGADALCALDILSCAGFVNHFGRSMSVEKIDISPVLLQKGSTKIALYGLGSIPDERLYRMFVNKKVTMLRPKEDENSWFNLFVIHQNRSKHGSTNFIPEQFLDDFIDLVIWGHEHECKIAPTKNEQQLFYISQPGSSVVTSLSPGEAVKKHVGLLRIKGRKMNMHKIPLHTVRQFFMEDIVLANHPDIFNPDNPKVTQAIQSFCLEKIEEMLENAERERLGNSHQPEKPLVRLRVDYSGGFEPFSVLRFSQKFVDRVANPKDIIHFFRHREQKEKTGEEINFGKLITKPSEGTTLRVEDLVKQYFQTAEKNVQLSLLTERGMGEAVQEFVDKEEKDAIEELVKYQLEKTQRFLKERHIDALEDKIDEEVRRFRETRQKNTNEEDDEVREAMTRARALRSQSEESASAFSADDLMSIDLAEQMANDSDDSISAATNKGRGRGRGRRGGRGQNSASRGGSQRGRADTGLETSTRSRNSKTAVSASRNMSIIDAFKSTRQQPSRNVTTKNYSEVIEVDESDVEEDIFPTTSKTDQRWSSTSSSKIMSQSQVSKGVDFESSEDDDDDPFMNTSSLRRNRR
# B3: recombinant CtIP (natural protein, human, UniProt Q99708 1-897, looked up)
# chain: MNISGSSCGSPNSADTSSDFKDLWTKLKECHDREVQGLQVKVTKLKQERILDAQRLEEFFTKNQQLREQQKVLHETIKVLEDRLRAGLCDRCAVTEEHMRKKQQEFENIRQQNLKLITELMNERNTLQEENKKLSEQLQQKIENDQQHQAAELECEEDVIPDSPITAFSFSGVNRLRRKENPHVRYIEQTHTKLEHSVCANEMRKVSKSSTHPQHNPNENEILVADTYDQSQSPMAKAHGTSSYTPDKSSFNLATVVAETLGLGVQEESETQGPMSPLGDELYHCLEGNHKKQPFEESTRNTEDSLRFSDSTSKTPPQEELPTRVSSPVFGATSSIKSGLDLNTSLSPSLLQPGKKKHLKTLPFSNTCISRLEKTRSKSEDSALFTHHSLGSEVNKIIIQSSNKQILINKNISESLGEQNRTEYGKDSNTDKHLEPLKSLGGRTSKRKKTEEESEHEVSCPQASFDKENAFPFPMDNQFSMNGDCVMDKPLDLSDRFSAIQRQEKSQGSETSKNKFRQVTLYEALKTIPKGFSSSRKASDGNCTLPKDSPGEPCSQECIILQPLNKCSPDNKPSLQIKEENAVFKIPLRPRESLETENVLDDIKSAGSHEPIKIQTRSDHGGCELASVLQLNPCRTGKIKSLQNNQDVSFENIQWSIDPGADLSQYKMDVTVIDTKDGSQSKLGGETVDMDCTLVSETVLLKMKKQEQKGEKSSNEERKMNDSLEDMFDRTTHEEYESCLADSFSQAADEEEELSTATKKLHTHGDKQDKVKQKAFVEPYFKGDERETSLQNFPHIEVVRKKEERRKLLGHTCKECEIYYADMPAEEREKKLASCSRHRFRYIPPNTPENFWEVGFPSTQTCMERGYIKEDLDPCPRPKRRQPYNAIFSPKGKEQKT
# Legend:
# [1] = target: MRE11-RAD50-NBS1 complex (recombinant) (human, UniProt P49959 1-708; Q92878 1-1312; O60934 1-754); experiment: co-IP
# purified RECQL4-3XFLAG = target: T1, purified RECQL4-3XFLAG; experiment: pull-down
# RECQL4-KM-3XFLAG = target: T2, RECQL4-KM-3XFLAG; experiment: pull-down
# recombinant RECQL4 = target: B1; experiment: co-IP
# MRE11-RAD50-NBS1 complex (recombinant), sequence (Q92878 whole entry, chain 2 of 2): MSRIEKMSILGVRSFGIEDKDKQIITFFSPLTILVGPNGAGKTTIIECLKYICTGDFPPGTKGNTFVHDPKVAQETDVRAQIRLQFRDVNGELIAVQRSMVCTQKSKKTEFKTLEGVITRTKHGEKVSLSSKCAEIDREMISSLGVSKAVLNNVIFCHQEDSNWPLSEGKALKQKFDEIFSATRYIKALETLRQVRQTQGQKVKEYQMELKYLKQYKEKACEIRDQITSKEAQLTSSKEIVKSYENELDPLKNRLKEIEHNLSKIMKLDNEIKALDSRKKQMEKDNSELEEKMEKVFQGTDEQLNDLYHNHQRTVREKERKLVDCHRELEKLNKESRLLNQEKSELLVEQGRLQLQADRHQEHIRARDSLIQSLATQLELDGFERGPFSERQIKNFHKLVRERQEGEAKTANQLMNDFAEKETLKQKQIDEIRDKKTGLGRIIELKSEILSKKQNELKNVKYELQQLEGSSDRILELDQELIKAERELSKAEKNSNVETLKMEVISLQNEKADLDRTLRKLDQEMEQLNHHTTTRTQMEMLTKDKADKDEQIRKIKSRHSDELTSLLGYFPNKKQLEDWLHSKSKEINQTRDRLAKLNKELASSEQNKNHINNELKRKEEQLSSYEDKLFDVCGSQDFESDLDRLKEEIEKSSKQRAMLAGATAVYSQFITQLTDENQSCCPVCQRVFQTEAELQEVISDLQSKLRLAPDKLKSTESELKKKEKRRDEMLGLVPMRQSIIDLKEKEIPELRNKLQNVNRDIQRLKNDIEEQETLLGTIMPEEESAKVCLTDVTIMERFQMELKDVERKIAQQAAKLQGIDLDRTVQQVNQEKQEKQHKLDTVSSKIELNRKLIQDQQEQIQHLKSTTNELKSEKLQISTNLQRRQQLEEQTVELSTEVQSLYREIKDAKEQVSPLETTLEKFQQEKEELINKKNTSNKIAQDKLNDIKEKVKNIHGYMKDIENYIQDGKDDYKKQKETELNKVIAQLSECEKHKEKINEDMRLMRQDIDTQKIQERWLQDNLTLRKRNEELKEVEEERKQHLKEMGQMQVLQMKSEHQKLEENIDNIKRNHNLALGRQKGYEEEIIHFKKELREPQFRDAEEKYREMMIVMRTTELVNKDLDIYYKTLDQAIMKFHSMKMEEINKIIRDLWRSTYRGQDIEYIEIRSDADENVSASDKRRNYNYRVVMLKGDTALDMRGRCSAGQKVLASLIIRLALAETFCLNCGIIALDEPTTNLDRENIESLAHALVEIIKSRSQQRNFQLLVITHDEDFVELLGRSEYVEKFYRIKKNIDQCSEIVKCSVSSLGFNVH
# MRE11-RAD50-NBS1 complex (recombinant), sequence (O60934 whole entry, chain 3 of 2): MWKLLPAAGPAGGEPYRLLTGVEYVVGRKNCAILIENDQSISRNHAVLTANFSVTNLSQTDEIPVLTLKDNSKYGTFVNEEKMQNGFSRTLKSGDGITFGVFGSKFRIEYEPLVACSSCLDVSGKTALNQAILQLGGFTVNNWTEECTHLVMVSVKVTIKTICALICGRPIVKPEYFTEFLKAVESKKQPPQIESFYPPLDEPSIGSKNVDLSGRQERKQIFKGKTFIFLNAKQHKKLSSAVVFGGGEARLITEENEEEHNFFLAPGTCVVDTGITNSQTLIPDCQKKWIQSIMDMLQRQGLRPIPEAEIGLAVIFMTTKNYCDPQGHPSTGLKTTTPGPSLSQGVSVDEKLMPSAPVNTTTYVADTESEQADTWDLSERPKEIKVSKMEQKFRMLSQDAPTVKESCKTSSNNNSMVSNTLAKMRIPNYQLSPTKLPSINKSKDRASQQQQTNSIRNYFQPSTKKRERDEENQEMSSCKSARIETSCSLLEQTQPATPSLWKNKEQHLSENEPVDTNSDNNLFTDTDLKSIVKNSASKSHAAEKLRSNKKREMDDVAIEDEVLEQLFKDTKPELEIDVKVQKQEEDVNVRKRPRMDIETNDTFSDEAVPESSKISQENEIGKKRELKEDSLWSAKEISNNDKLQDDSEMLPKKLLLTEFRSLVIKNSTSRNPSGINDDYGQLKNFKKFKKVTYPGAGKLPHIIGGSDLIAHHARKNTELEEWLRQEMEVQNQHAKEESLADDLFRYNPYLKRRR
binder,measurement,setting,value
B1,binding result,[1],binds
B2,binding result,purified RECQL4-3XFLAG,binds
same,binding result,RECQL4-KM-3XFLAG,binds
B3,binding result,recombinant RECQL4,binds
